Results published in paper PMC11055898 (2024).

Tests used:
[1] = molecular target: T1, human CD64 (FcgRI) (human, UniProt P12314 16-374, biotin (biotinylated Fc receptors)); assay: SPR
[2] = molecular target: T1, human CD64 (FcgRI); assay: SPR; remark: listed apart in the source
[3] = molecular target: mouse CD16-2; assay: SPR
[4] = molecular target: mouse CD64; assay: SPR
[5] = molecular target: mouse CD16; assay: SPR
[6] = molecular target: mouse CD16-2; assay: SPR; remark: listed apart in the source
[7] = molecular target: mouse CD64; assay: SPR; remark: listed apart in the source
[8] = molecular target: mouse CD16; assay: SPR; remark: listed apart in the source
[9] = molecular target: human FcRn; assay: SPR; pH 6.2
[10] = molecular target: human FcRn; assay: SPR; pH 6.2; remark: listed apart in the source

T1 sequence (P12314 16-374): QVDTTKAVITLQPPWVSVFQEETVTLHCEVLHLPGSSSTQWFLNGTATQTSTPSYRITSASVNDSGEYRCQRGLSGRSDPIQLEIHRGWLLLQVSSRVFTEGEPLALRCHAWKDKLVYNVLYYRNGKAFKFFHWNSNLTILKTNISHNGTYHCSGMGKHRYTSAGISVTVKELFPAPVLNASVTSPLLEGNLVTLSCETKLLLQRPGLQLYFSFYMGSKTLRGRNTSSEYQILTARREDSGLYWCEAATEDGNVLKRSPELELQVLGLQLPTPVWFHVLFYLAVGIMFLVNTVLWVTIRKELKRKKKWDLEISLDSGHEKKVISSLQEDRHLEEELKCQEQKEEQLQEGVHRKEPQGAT

B1: Ab11 IgGh47 (antibody)
chain 1: QVTLKESGPVLVKPTETLTLTCTVSGFSLSNAKMGVSWIRQPPGKALEWLAHIFSNDEKSYSTSLKSSLTISKDTSKSQVVLTMTNMDPVDTATYYCARLLWFGGNYFDYWGQGTLVTVSS
chain 2: not shown
Q: What does the source list for B1?
A: koff [1]: 0.00017 s⁻¹; Kd [2]: 2.1 nM; koff [3]: 0.0018 s⁻¹; koff [4]: 0.00083 s⁻¹; koff [5]: 0.00074 s⁻¹; Kd [6]: 24 nM; Kd [7]: 7 nM; Kd [8]: 15 nM; koff [9]: 0.00048 s⁻¹; Kd [10]: 7.1 nM
